The values that follow are results of earlier work, collected in patent publication US20240293553A1, “P-SELECTIN INHIBITORS AND USES THEREOF” (Beth Israel Deaconess Medical Center, Inc., priority 2021, published 2024).

By Kd is commonly meant a measure of binding affinity in units of concentration.

One data set addresses T1, P-selectin (Homo sapiens, UniProt P16109).
T1 sequence (P16109 42-830): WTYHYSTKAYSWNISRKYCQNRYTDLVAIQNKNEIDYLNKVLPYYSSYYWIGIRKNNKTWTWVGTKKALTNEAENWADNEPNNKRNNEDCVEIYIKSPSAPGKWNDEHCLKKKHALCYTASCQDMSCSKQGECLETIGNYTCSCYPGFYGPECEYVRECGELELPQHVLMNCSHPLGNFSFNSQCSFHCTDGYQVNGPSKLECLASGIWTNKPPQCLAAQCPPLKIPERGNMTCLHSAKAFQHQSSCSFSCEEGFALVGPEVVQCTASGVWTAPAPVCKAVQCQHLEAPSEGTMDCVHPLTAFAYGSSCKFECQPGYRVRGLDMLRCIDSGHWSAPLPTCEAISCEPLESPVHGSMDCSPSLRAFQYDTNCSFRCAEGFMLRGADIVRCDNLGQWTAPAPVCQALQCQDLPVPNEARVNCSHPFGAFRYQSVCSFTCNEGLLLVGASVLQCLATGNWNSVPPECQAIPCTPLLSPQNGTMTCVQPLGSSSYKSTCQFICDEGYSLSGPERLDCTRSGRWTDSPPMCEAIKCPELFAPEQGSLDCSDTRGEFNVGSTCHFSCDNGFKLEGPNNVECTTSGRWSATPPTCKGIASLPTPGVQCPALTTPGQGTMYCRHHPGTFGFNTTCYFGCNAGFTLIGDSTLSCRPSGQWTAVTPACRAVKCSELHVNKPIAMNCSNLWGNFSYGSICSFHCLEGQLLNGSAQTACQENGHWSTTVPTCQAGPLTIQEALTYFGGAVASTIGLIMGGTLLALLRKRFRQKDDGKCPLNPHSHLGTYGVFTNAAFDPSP
To be noted: reported values.

For data set [1] the following is noted: literature values.

Several values for one entry are separate records, joined by “and”; a condition that tells them apart may be missing. Equal values may be shown once.

B1: PSGL-1: P-selectin glycoprotein ligand-1, glycoprotein expressed on the surface of all leukocytes; native ligand of P-selectin (protein, UniProt Q14242 42-412, looked up)
P-selectin glycoprotein …: QATEYEYLDYDFLPETEPPEMLRNSTDTTPLTGPGTPESTTVEPAARRSTGLDAGGAVTELTTELANMGNLSTDSAAMEIQTTQPAATEAQTTQPVPTEAQTTPLAATEAQTTRLTATEAQTTPLAATEAQTTPPAATEAQTTQPTGLEAQTTAPAAMEAQTTAPAAMEAQTTPPAAMEAQTTQTTAMEAQTTAPEATEAQTTQPTATEAQTTPLAAMEALSTEPSATEALSMEPTTKRGLFIPFSVSSVTHKGIPMAASNLSVNYPVGAPDHISVKQCLLAILILALVATIFFVCTVVLAVRLSRKGHMYPVRNYSPTEMVCISSLLPDGGEGPSATANGGLSKAKSPGLTPEPREDREGDDLTLHSFLP
As for B1, in the data set with P-selectin, the Kd is 73 nM and 70 to 300 nM.

B2: crizanlizumab: anti-P-selectin mAb approved for the treatment of sickle cell disease (antibody, chains of the INN, looked up, V domains shown)
VH: QVQLVQSGAEVKKPGASVKVSCKVSGYTFTSYDINWVRQAPGKGLEWMGWIYPGDGSIKYNEKFKGRVTMTVDKSTDTAYMELSSLRSEDTAVYYCARRGEYGNYEGAMDYWGQGTLVTVSS
VL: DIQMTQSPSSLSASVGDRVTITCKASQSVDYDGHSYMNWYQQKPGKAPKLLIYAASNLESGVPSRFSGSGSGTDFTLTISSLQPEDFATYYCQQSDENPLTFGGGTKVEIK
As for B2, the t1/2 in data set [1] was 10.6 days.
